The text below walks through data of publication doi:10.1101/2022.07.12.499507 (bioRxiv, 2022).

Test [1] concerns the target T1, Epl1 (Saccharomyces cerevisiae, UniProt P43572 1-832).
T1 sequence: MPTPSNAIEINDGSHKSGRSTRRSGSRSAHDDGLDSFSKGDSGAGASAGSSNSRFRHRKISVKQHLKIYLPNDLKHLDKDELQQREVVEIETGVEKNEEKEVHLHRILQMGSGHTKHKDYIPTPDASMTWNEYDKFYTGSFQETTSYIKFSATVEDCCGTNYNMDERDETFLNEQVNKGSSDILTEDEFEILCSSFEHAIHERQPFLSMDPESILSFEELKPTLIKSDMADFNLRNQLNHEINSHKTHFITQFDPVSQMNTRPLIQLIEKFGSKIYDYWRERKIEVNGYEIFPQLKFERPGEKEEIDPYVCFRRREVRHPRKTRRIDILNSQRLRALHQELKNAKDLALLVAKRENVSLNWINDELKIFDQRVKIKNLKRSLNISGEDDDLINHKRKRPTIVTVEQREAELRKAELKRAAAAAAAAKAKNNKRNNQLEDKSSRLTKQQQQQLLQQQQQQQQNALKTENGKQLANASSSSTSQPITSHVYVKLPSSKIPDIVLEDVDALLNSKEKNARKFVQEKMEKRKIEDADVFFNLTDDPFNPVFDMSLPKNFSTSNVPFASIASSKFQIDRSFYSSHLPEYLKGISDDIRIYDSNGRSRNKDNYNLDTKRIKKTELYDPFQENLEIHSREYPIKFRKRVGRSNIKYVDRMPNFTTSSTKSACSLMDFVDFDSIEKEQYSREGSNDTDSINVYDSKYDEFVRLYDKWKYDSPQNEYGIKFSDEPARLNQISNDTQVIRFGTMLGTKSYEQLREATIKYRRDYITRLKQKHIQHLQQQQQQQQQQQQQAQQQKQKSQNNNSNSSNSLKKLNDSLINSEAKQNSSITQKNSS
The test can be described thus: cross-linking.

For test [2], the target named is T2, Eaf2 (Saccharomyces cerevisiae, UniProt P53201 1-476).
T2 sequence: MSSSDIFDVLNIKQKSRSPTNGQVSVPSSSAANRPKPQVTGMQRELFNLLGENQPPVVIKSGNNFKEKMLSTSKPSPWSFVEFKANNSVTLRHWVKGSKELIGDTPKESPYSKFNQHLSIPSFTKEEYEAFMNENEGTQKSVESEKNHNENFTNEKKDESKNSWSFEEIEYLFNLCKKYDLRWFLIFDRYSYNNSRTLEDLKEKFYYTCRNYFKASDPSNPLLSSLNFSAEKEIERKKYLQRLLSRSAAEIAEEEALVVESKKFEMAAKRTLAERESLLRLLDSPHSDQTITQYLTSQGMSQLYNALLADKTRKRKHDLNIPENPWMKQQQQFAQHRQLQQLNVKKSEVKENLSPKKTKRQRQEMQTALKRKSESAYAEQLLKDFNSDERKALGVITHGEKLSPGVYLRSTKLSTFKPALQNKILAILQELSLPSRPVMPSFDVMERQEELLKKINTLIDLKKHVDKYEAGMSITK
The test is described as follows: cross-linking.

B1: Eaf3 (natural protein)
chain: MVDLEQEFALGGRCLAFHGPLMYEAKILKIWDPSSKMYTSIPNDKPGGSSQATKEIKPQKLGEDESIPEEIINGKCFFIHYQGWKSSWDEWVGYDRIRAYNEENIAMKKRLANEAKEAKKSLLEQQKKKKLSTSLGGPSNGGKRKGDSRSNASISKSTSQSFLTSSVSGRKSGRSSANSLHPGSSLRSSSDQNGNDDRRRSSSLSPNMLHHIAGYPTPKISLQIPIKLKSVLVDDWEYVTKDKKICRLPADVTVEMVLNKYEHEVSQELESPGSQSQLSEYCAGLKLYFDKCLGNMLLYRLERLQYDELLKKSSKDQKPLVPIRIYGAIHLLRLISVLPELISSTTMDLQSCQLLIKQTEDFLVWLLMHVDEYFNDKDPNRSDDALYVNTSSQYEGVALGM
On to B1, for which the binding result in test [1] was “binds”.

B2: Yaf9 (natural protein)
chain: MAPTISKRIKTLSVSRPIIYGNTAKKMGSVKPPNAPAEHTHLWTIFVRGPQNEDISYFIKKVVFKLHDTYPNPVRSIEAPPFELTETGWGEFDINIKVYFVEEANEKVLNFYHRLRLHPYANPVPNSDNGNEQNTTDHNSKDAEVSSVYFDEIVFNEPNEEFFKILMSRPGNLLPSNKTDDCVYSKQLEQEEIDRIEIGIEKVDKEIDELKQKLENLVKQEAINGS
Regarding B2, the binding result in test [2] is “binds”.
